From PMC5686756, “IKKγ-Mimetic Peptides Block the Resistance to Apoptosis Associated with Kaposi's Sarcoma-Associated Herpesvirus Infection” (Journal of Virology, 2017)

Target: ks-vFLIP (purified, thermofluor assay) (Kaposi's sarcoma-associated herpesvirus (KSHV)) (UniProt Q76RF1)
Test: thermofluor (thermal shift); 30 μM ks-vFLIP combined with IKKγ or mimetic peptides, SYPRO orange 1:1,000, 96-well plate, thermal denaturation

Chain of IKKγ fragment encompassing residues 150 to 272 (Q9Y6K9 150-272): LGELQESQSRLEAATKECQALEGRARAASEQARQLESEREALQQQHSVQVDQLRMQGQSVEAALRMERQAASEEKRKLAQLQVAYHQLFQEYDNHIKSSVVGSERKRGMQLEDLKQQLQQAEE
Chain of unmodified IKKγ 30-mer peptide (residues 224 to 253) (Q9Y6K9 224-253): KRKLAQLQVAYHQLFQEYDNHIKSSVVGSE

Row | Substance | shift in melting temperature at 100 μM [°C] | shift in melting temperature at 30 μM [°C]
1 | unmodified IKKγ 21-mer peptide (residues 226 to 248) (from UniProt Q9Y6K9 226-248) | 4 | –
2 | IKKγ fragment encompassing residues 150 to 272 (from UniProt Q9Y6K9 150-272) (domain or fragment) | – | 8
3 | unmodified IKKγ 30-mer peptide (residues 224 to 253) (from UniProt Q9Y6K9 224-253) | 4 | –
